Results: patent publication US5830995 (Bristol-Myers Squibb Company, dated 1998)

Each molecule was assayed against T1, human EGF receptor (human, UniProt P00533) (assay: competition of 125I-EGF binding to NRHER5 membranes, 50% inhibition).

Row | IC50 | Molecule
1 | 0.1 µM | native amphiregulin (AR) purified from TPA-treated MCF-7 cells (ligand)
2 | ~0.1 µM | recombinant human AR 18 kD purified from CHO/ARGE 2a cells (ligand, N-linked glycosylation at Asn-113) NKTESEKTSDKPKRKKKGGKNGKNRRNRKKKNLCDTEFQNFCIHGKCTFLEQLETVSCQCYPEYFGERCGEKSMKTQSMVD

Second part, the molecule before the results:

Row | Molecule | IC50
3 | gp35, 35-40 kD soluble high molecular weight form of human AR (ligand) | > 0.3 µM
4 | bacterially produced AAAT (ligand) MVVKPPQNKTESENTSDKPKRKKKGGKNGKNRRNRKKKNPCNAEFQNFCIHGECKYIEHLEAVTCKCQQEYFGERCGEKDLLA | ~0.0015 µM
5 | bacterially produced AR-SMKT (ligand) MVVKPPQNKTESENTSDKPKRKKKGGKNGKNRRNRKKKNPCNAEFQNFCIHGECKYIEHLEAVTCKCQQEYFGERCGEKSMKT | ~0.15 µM

The molecules below were run against T1, human EGF receptor (assay: competition of 125I-EGF binding to NRHER5 membranes).

Row | maximum competition | Molecule
6 | 85% | native amphiregulin (AR) purified from TPA-treated MCF-7 cells (ligand)
